Assay results reported in patent US20230310601A1 (UNIVERSITY OF SOUTHERN CALIFORNIA, published 2023).

Target: T1, recombinant human PD-1-Fc (GenScript) (human, UniProt Q15116 25-167, limits assumed)
T1 construct: Bought reagent (GenScript); not shown: Fc part of the bought fusion
Experiment: sandwich ELISA; PD-1-Fc coated (200 ng/mL), purified trap protein 0-40 µg/mL, anti-His-tag-HRP detection
Protocol: FIG. 2A-2E depict characterization of trap protein. […] (2D and 2E) Binding ability of trap to PD-1 and TGF-β using sandwich ELISA, wherein purified trap protein was added to PD-1-Fc-coated or TGF-β-coated plates, followed by detection by anti-His-tag antibody conjugated with HRP.
The binding ability of trap protein to PD-1 and TGFβ protein was evaluated by sandwich ELISA, wherein recombinant human PD-1-Fc (GenScript) or […] protein (R&D Systems) (200 ng/mL) was coated on the plates, followed by purified trap protein (0-40 μg/mL) detected by anti-6×HIS TAG® antibody-HRP (1:500 diluted, Abcam).

T1 sequence (Q15116 25-167 limits assumed): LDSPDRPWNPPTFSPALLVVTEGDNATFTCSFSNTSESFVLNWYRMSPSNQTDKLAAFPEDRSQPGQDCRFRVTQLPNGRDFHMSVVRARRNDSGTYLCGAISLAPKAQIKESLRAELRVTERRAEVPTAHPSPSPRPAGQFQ

binding result: binds
B1: trap protein labeled with a His-tag (anti-PD-1 scFv fused to a TGF-β-binding sequence of TGF-βRII, produced in transfected 293T cells) (other, not shown: small tags and cut ends)
chain: DIVLTQSPATLSLSPGERATLSCRASKSVSTSGFNYMHWYQQKPGQAPRLLIFLASNLASGVPARFSGSGSGTDFTLTISSLEPEDFAVYYCQHGRELPLTFGQGTKLEIGGGGSGGGGSGGGGSQVQLVQSGAEVKKPGASVKVSCKASGYTFTNYYMYWVRQAPGQGLEWIGGINPSNGGTNFNEKFKNKATMTVDKSTSTAYMELSSLRSEDTAVYYCTRRDYNYDGGFDYWGQGTLVTVSSGGGGSGGGGSTIPPHVQKSVNNDMIVTDNNGAVKFPQLCKFCDVRFSTCDNQKSCMSNCSITSICEKPQEVCVAVWRKNDENITLETVCHDPKLPYHDFILEDAASPKCIMKEKKKPGETFFMCSCSSDECNDNIIFSEEYNTSNPD
notes: Western blot gives 56 kDa; The text says the scFv derives from antibody 5C4; also called bifunctional trap protein; purified trap protein
